Read-outs that look alike come from different tables or passages of the source.

In data set [1] the target is T1, ToPif1 S69C/S405C (Thermus oshimai, UniProt K7RJ88 64-507, S69C;S405C).
T1 sequence: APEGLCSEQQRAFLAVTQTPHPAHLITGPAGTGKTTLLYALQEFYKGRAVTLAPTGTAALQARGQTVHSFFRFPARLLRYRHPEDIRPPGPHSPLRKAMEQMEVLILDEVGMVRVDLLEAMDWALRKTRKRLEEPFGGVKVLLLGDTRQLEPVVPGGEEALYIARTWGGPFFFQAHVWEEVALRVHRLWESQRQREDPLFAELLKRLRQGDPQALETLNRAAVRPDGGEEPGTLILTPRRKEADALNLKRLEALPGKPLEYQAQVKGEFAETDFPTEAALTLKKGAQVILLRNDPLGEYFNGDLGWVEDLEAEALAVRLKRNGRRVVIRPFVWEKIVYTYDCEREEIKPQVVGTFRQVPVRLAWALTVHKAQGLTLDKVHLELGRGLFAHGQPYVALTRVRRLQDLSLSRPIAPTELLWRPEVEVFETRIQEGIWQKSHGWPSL
In words: smFRET.

For data set [2], the target named is T1, ToPif1 S69C/S405C. Put plainly: smFRET. The source holds these as a separate data set.
Data set [3] concerns the target T2, ToPif1 (Thermus oshimai, UniProt K7RJ88 64-507).
T2 sequence: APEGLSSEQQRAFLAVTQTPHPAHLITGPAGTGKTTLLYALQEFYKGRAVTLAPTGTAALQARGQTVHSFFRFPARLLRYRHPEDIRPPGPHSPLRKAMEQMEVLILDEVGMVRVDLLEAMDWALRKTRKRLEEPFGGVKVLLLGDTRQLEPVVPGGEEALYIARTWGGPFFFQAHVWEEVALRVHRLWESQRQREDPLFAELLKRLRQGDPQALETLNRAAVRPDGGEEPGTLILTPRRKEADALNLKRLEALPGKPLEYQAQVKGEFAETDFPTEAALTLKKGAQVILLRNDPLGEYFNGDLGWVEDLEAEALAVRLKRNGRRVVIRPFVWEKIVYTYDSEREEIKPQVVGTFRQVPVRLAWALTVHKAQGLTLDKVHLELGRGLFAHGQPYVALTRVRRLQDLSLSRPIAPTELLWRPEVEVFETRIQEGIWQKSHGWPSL
Put plainly: crystal structure.

Data set [4] deals with T2, ToPif1. In words: DLS.

B1: S8D38 (dsDNA)
DNA 1: TTTTTTTTTCCGGATCACCATGGCGGACTCTCTGCTCTCGTGCTCC
DNA 2: GGAGCACGAGAGCAGAGAGTCCGCCATGGTGATCCGGA
With B1, in the data set with ToPif1 S69C/S405C [1], the binding result is on record as “binds”.

For the molecule TTTTTTTT (ssDNA) [dT8], the binding result in the data set with ToPif1 S69C/S405C [2] is “binds”.

B2: S7D11 (dsDNA)
DNA 1: TTTTTTTCGCAGTGCTCG
DNA 2: CGAGCACTGCG
Take B2: in the data set with ToPif1 [3], the binding result was “binds”.

Consider TTTTTTTTTTTTTTT (ssDNA) [dT15], for which, in the data set with ToPif1 [4], the binding result is on record as “binds”.

The values above are taken from article PMC8053095.
